Measured values reported in publication PMC3109874.

Biological target: dicamba monooxygenase (DMO) (Stenotrophomonas (formerly Pseudomonas) maltophilia, strain DI-6) (UniProt Q5S3I3)
Experiment: crystal structure

dicamba monooxygenase (DMO) (from UniProt Q5S3I3 2-339) (enzyme)
stoichiometry N: 3
